“And” between values parts separate entries of the source, which are not always exact repeats. Equal values may be shown once.
Experiments:
[1] = test system: BAA2326 repressor (Shiga toxin-encoding bacteriophage BAA2326 (from STEC)); test: EMSA; settings: for binding signal: scale: fold Kd relative to separate OR1
[2] = test system: BAA2326 repressor (Shiga toxin-encoding bacteriophage BAA2326 (from STEC)); test: DNaseI footprinting

Substance	binding signal [1]	also measured
GCGAATTCACTAAAGCACTTGCAATATCACCTTTGGTTATATGTAATGCCATAATAACTAAGAAGCTTCC (double strand) [BAA2326 OR3 oligonucleotide]	2.5	–
GCGAATTCACTAAAGCACTTGCAATATGTAATGAAATATCTGCGGTGTTGACATTCCATAATAACTAAGAAGCTTCC (double strand) [BAA2326 OR2 oligonucleotide]	83.3	–
GCGAATTCACTAAAGCACTTGCATTTAATAACTGTGCGTAATGATATGCCATAATAACTAAGAAGCTTCC (double strand) [BAA2326 OR1 oligonucleotide]	–	Kd [1]: 0.42 nM
intact BAA2326 OR, wild type	–	Kd [2]: 28.6 nM and 44 nM and 59.1 nM

— PMC5977221
